Experimental findings from US20140079691A1 are described below.

Common to all, as to assay: method not stated in Example 7
In experiment [1] the target is C345C subunit of complement protein C5.
The target in experiment [2] is IL-17A.
The target of experiment [3] is β-NGF.
Chain of β-NGF (P01138 122-241): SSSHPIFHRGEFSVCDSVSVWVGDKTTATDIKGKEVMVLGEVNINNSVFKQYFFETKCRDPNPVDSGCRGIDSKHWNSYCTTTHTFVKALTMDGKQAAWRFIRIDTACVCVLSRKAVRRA

Chain of IL-17A (Q16552 24-155): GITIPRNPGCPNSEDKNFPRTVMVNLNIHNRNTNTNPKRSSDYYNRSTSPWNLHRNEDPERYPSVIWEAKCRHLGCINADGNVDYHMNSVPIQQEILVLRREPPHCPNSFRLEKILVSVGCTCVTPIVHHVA
Chain of C345C subunit of complement protein C5 (P01031 1532-1676): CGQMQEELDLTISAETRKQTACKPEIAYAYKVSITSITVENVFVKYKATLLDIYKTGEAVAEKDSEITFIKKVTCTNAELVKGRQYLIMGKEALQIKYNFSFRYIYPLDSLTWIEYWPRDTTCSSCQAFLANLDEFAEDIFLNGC

B1: APE1775 (antibody, human IgG1, kappa, V domains shown)
VH: EVQLVESGGGLVQPGGSLILSCAASGFTFSSYAMTWVRQAPGKGLEWVCAISGSGSTYYADSVKGRFTCSRDNSKNTLYLQMNSLRAEDTAVYYCARRGLRYNYFDYWGAGTTVTVSS
VL: DVVLTQSPLSLAVLLGQPASISCRASQSVSSSYLAWYQQRPGQSPRLLIYGASSRATGVPDRFSGSGSGTDFTLKISRVEAEDVGVYFCQQYGRSLEYTFGGGTKLEIKR
In the case of B1, the Kd (usually the concentration at which binding is half-saturated) in experiment [1] turned out to be 5 nM.

B2: APE1662 (antibody, human IgG1, kappa, V domains shown)
VH: EVQLVESGGGLVQPGGSLILSCAASGFTFSNHWMNWVRQAPGKGLEWVCAAINEDGSEKYYVGSVKVRFTCSRDNSKNTLYLQMNSLRAEDTAVYYCARDYYDILTDYYIHYWYFDLWGAGTTVTVSS
VL: DVVLTQSPLSLAVLLGQPASISCRASQSVSSSYLAWYQQRPGQSPRLLIYGASSRATGVPDRFSGSGSGTDFTLKISRVEAEDVGVYFCQQYGSSPLTFGGGTKLEIKR
As for B2, in experiment [2], the Kd is 0.21 nM and the fold improvement in antigen binding affinity (against the parental antibody, APE508 in Table 3) is 1.6 fold.

B3: APE1661 (antibody, human IgG1, kappa, V domains shown)
VH: EVQLVESGGGLVQPGGSLILSCAASGFTFTTYNMNWVRQAPGKGLEWVCVISTGGSNTYYADSVKGRFTCSRDNSKNTLYLQMNSLRAEDTAVYYCARDGGYSSSTLYAMDAWGAGTTVTVSS
VL: DVVLTQSPLSLAVLLGQPASISCRASKNIYNALAWYQQRPGQSPRLLIYNTDRLHTGVPDRFSGSGSGTDFTLKISRVEAEDVGVYFCQHYFDYPRTFGGGTKLEIKR
As to B3, in experiment [3], the Kd was 12 nM and the fold loss in β-NGF binding affinity (against the parental antibody, APE579 in Table 3) came out at 2 fold.
